The EC50 (read off the curve) is the concentration giving half of the maximal effect.

Positions count from the first letter of the chain named.

We go through 5 molecules from US20210130470A1 (MacroGenics, published 2021).

For assay [1], the target named is T1, hPD-1-His (human, UniProt Q15116 25-170, limits assumed).
T1 construct: also called His-tagged soluble human PD-1; shPD-1
Description: ELISA: shPD-1-his coated, detection goat anti-human Fc-gamma-HRP 1:10000, chemiluminescence RLU. The text has this: (§1) FIGS. 8A-8D show the results of ELISA studies measuring the binding of serially diluted binding molecules to human CTLA-4 and human PD-1. […] Goat anti-human-Fc-HRP (1:10,000) was employed as the secondary detection molecule to detect binding. FIGS. 8C-8D show the results of a study on the effect of altering orientations and binding domains on binding. […] Goat anti-human-Fcγ-HRP was employed as the secondary detection molecule to detect binding using PICO chemiluminescent substrate.
(In general: In an ELISA, binding on a coated surface is turned into a signal by an enzyme label.)

Another assay concerns the target T2, soluble hCTLA-4-Avi-His (human, UniProt P16410 36-161).
T2 construct: also called soluble human CTLA-4-Avi-His
T2 sequence: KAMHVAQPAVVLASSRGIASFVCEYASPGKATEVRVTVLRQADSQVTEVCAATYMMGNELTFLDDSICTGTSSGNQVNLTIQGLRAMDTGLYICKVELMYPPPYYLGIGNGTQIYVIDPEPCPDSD
Description: ELISA: shCTLA-4-Avi-His coated at 1 ug/mL, detection goat anti-human Fc-gamma-HRP 1:10000, chemiluminescence RLU.
Excerpt: as §1

The target of assay [2] is T3, PD-1 expressed on the cell surface (human, UniProt Q15116 21-288).
T3 construct: also called NSO cells expressing PD-1; NSO-PD-1 cells
Description: cell-based competition (FACS): blocked ligand PD-L1-PE binding to NSO-PD-1 cells, MFI.

Assay [3] has as its target T3, PD-1 expressed on the cell surface. The experiment in a line: cell-based competition (FACS): blocked ligand PD-L2-PE binding to NSO-PD-1 cells, MFI.
Assay [4] has as its target T4, His-tagged soluble cynomolgus monkey CTLA-4 (cynomolgus monkey).
T4 construct: extracellular domain; also called Cyno CTLA-4
Description: BIACORE, His-tagged soluble cyno CTLA-4 captured on anti-PentaHis, binder passed over at 12.5-200 nM; affinity by 1:1 Langmuir binding model. On the procedure:
(§2) Briefly, His-tagged soluble CTLA-4 (an extracellular portion of human or cynomolgus monkey CTLA-4 fused to a histidine-containing peptide) was captured on immobilized anti-PentaHis and then different concentrations (12.5-200 nM) of the CTLA-4 binding molecules were passed over the immobilized CTLA-4 proteins. The kinetics of binding were determined via BIACORE® analysis (affinity by 1:1 Langmuir binding model (simultaneous ka/kd); or avidity by separate ka/kd 1:1 fit).

Assay [5] has as its target T1, hPD-1-His. The experiment in a line: competition ELISA: plate coated with shPD-1 and shCTLA-4 1:1 (2 ug/ml each); blocked ligand biotin-labeled PD-L1 6 ug/ml, streptavidin-HRP, RLU. On the procedure:
(§3) A series of ELISA assays were conducted to evaluate the ability of bispecific molecules of the invention to block ligand binding to PD-1 and […], alone and in combination. […] Plates were coated with a 1:1 mix of His-tagged soluble human PD-1 (shPD-1) and a His-tagged irrelevant antigen (irrAg) (2 μg/ml each), or a 1:1 mix of shPD-1 and a His-tagged soluble human CTLA-4 (shCTLA-4) (2 μg/ml each).

Assay [6] addresses T5, His-tagged soluble human CTLA-4 (human, UniProt P16410 36-161).
T5 construct: also called shCTLA-4
T5 sequence: T2 sequence
Description: competition ELISA: plate coated with shCTLA-4 and shPD-1 1:1 (2 ug/ml each); blocked ligand biotin-labeled B7-1 0.2 ug/ml, streptavidin-HRP, RLU. On the procedure:
(§4) Plates were coated with a 1:1 mix of shCTLA-4 and irrAg (2 μg/ml each), a 1:1 mix of shCTLA-4 shPD-1 (2 μg/ml each), or a 1:4 mix of shCTLA-4 (0.8 μg/ml) and shPD-1 (3.2 μg/ml).

Assay [7] concerns the target T5, His-tagged soluble human CTLA-4. The experiment in a line: competition ELISA: plate coated with shCTLA-4 0.8 ug/ml and shPD-1 3.2 ug/ml (1:4); blocked ligand biotin-labeled B7-1 0.2 ug/ml, streptavidin-HRP, RLU. On the procedure:
as §4

The target of assay [8] is T1, hPD-1-His. Description: competition ELISA: plate coated with shPD-1 and irrelevant antigen 1:1 (2 ug/ml each); blocked ligand biotin-labeled PD-L1 6 ug/ml, streptavidin-HRP, RLU. On the procedure:
as §3

Assay [9] deals with T4, His-tagged soluble cynomolgus monkey …. Description: BIACORE, His-tagged soluble cyno CTLA-4 captured on anti-PentaHis, binder passed over at 12.5-200 nM; avidity by separate ka/kd 1:1 fit. On the procedure:
as §2

Assay [10] has as its target T3, PD-1 expressed on the cell surface. Description: flow cytometry on NSO cells expressing PD-1 but not CTLA-4, MFI (APC). (In general: A flow cytometer gives signals particle by particle.)
For assay [11], the target named is T6, human CTLA-4 expressed on the cell surface (human, UniProt P16410 36-223).
T6 construct: also called huCTLA-4; CHO cells expressing human CTLA-4
T6 sequence: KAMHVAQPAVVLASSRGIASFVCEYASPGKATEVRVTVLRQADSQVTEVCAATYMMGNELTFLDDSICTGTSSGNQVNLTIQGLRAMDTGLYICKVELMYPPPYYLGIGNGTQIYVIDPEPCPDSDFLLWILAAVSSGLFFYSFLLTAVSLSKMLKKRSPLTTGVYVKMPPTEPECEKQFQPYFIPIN
The experiment in a line: flow cytometry on CHO cells expressing human CTLA-4, anti-human Fc secondary antibody, GMFI.

Assay [12] addresses T7, cynomolgus monkey CTLA-4 expressed on CHO cells (cynomolgus monkey, UniProt G7PL88 36-223).
T7 construct: also called cynoCTLA-4
T7 sequence: T6 sequence with S14N, I18T, L106M
The experiment in a line: flow cytometry on CHO cells expressing cynomolgus monkey CTLA-4, anti-human Fc secondary antibody, GMFI.

Assay [13] deals with T6, human CTLA-4 expressed on the cell …. Description: cell-based competition: blocked ligand His-B7-1 10 ng/ml binding to CTLA-4 Jurkat cells, detected with anti-His antibody, GMFI-APC.
The target is the same in assay [14]. The experiment in a line: cell-based competition: blocked ligand His-B7-2 116.8 ng/ml binding to CTLA-4 Jurkat cells, detected with anti-His antibody, GMFI-APC.

B1: DART B (bispecific antibody)
chain 1: not shown
chain 2: EIVLTQSPATLSLSPGERATLSCRASESVDNYGMSFMNWFQQKPGQPPKLLIHAASNQGSGVPSRFSGSGSGTDFTLTISSLEPEDFAVYFCQQSKEVPYTFGGGTKVEIKGGGSGGGGQVQLVESGGGVVQPGRSLRLSCAASGFTFSSYTMHWVRQAPGKGLEWVTFISYDGNNKYYADSVKGRFTISRDNSKNTLYLQMNSLRAEDTAIYYCARTGWLGPFDYWGQGTLVTVSSGGCGGGKVAACKEKVAALKEKVAALKEKVAALKE
notes: Four-chain Fc diabody, PD-1 mAb 6-ISQ x CTLA-4 mAb 1, IgG4 (YTE), E/K-coils; two sites for PD-1 and two for CTLA-4
As to B1, in the assay with hPD-1-His [1], the “EC50 (read off the curve)” value is approximately 0.5 nM.

B2: DART C (bispecific antibody)
chain 1: not shown
chain 2: B1 chain 2 with N175S, Y178H, I189V
notes: Four-chain Fc diabody, CTLA-4 mAb 3 x PD-1 mAb 6-ISQ, IgG4 Fc, E/K-coils
For B2, the half-maximal effective concentration (EC50 (read off the curve)) was approximately 0.5 nM with hPD-1-His [1] and approximately 0.4 nM with soluble hCTLA-4-Avi-His.

B3: TRIDENT A (bispecific antibody, human IgG4 S228P, kappa)
chain 1: EIVLTQSPATLSLSPGERATLSCRASESVDNYGMSFMNWFQQKPGQPPKLLIHAASNQGSGVPSRFSGSGSGTDFTLTISSLEPEDFAVYFCQQSKEVPYTFGGGTKVEIKGGGSGGGGQVQLVQSGAEVKKPGASVKVSCKASGYSFTSYWMNWVRQAPGQGLEWIGVIHPSDSETWLDQKFKDRVTITVDKSTSTAYMELSSLRSEDTAVYYCAREHYGTSPFAYWGQGTLVTVSSGGCGGGEVAACEKEVAALEKEVAALEKEVAALEKESKYGPPCPPCPAPEFLGGPSVFLFPPKPKDTLYITREPEVTCVVVDVSQEDPEVQFNWYVDGVEVHNAKTKPREEQFNSTYRVVSVLTVLHQDWLNGKEYKCKVSNKGLPSSIEKTISKAKGQPREPQVYTLPPSQEEMTKNQVSLWCLVKGFYPSDIAVEWESNGQPENNYKTTPPVLDSDGSFFLYSRLTVDKSRWQEGNVFSCSVMHEALHNHYTQKSLSLSLG
chain 2: EIVLTQSPATLSLSPGERATLSCRASESVDNYGMSFMNWFQQKPGQPPKLLIHAASNQGSGVPSRFSGSGSGTDFTLTISSLEPEDFAVYFCQQSKEVPYTFGGGTKVEIKGGGSGGGGQVQLVQSGAEVKKPGASVKVSCKASGYSFTSYWMNWVRQAPGQGLEWIGVIHPSDSETWLDQKFKDRVTITVDKSTSTAYMELSSLRSEDTAVYYCAREHYGTSPFAYWGQGTLVTVSSGGCGGGKVAACKEKVAALKEKVAALKEKVAALKE
chain 3: QVQLVESGGGVVQPGRSLRLSCAASGFTFSSYTMHWVRQAPGKGLEWVTFISYDGSNKHYADSVKGRFTVSRDNSKNTLYLQMNSLRAEDTAIYYCARTGWLGPFDYWGQGTLVTVSSASTKGPSVFPLAPCSRSTSESTAALGCLVKDYFPEPVTVSWNSGALTSGVHTFPAVLQSSGLYSLSSVVTVPSSSLGTKTYTCNVDHKPSNTKVDKRVESKYGPPCPPCPAPEFLGGPSVFLFPPKPKDTLYITREPEVTCVVVDVSQEDPEVQFNWYVDGVEVHNAKTKPREEQFNSTYRVVSVLTVLHQDWLNGKEYKCKVSNKGLPSSIEKTISKAKGQPREPQVYTLPPSQEEMTKNQVSLSCAVKGFYPSDIAVEWESNGQPENNYKTTPPVLDSDGSFFLVSRLTVDKSRWQEGNVFSCSVMHEALHNRYTQKSLSLSLG
chain 4: not shown
notes: Four-chain trivalent molecule: two PD-1 sites (PD-1 mAb 6-ISQ, diabody type), one CTLA-4 site (CTLA-4 mAb 3, Fab type), knob/hole IgG4 (YTE)
On to B3, for which the “IC50 (read off the curve)” value is approximately 0.8 nM in assay [2]; approximately 1 nM in assay [3]; approximately 1 nM in the assay with hPD-1-His [5]; approximately 10 nM in assay [6]; approximately 3 nM in assay [7]; approximately 1 nM in the assay with hPD-1-His [8]. Also, in assay [4], the Kd worked out at 260 nM.

B4: CTLA-4 mAb 1 (antibody, IgG1, V domains shown)
VH: QVQLVESGGGVVQPGRSLRLSCAASGFTFSSYTMHWVRQAPGKGLEWVTFISYDGNNKYYADSVKGRFTISRDNSKNTLYLQMNSLRAEDTAIYYCARTGWLGPFDYWGQGTLVTVSS
VL: not shown
notes: IgG1, natural antibody structure; also called ipilimumab replica
B4 showed a Kd in assay [9] of 1.3 nM.

B5: DART D (bispecific antibody, human IgG4 S228P)
chain 1: EIVLTQSPATLSLSPGERATLSCRASESVDNYGMSFMNWFQQKPGQPPKLLIHAASNQGSGVPSRFSGSGSGTDFTLTISSLEPEDFAVYFCQQSKEVPYTFGGGTKVEIKGGGSGGGGQVQLVESGGGVVQPGRSLRLSCAASGFTFSSYTMHWVRQAPGKGLEWVTFISYDGSNKHYADSVKGRFTVSRDNSKNTLYLQMNSLRAEDTAIYYCARTGWLGPFDYWGQGTLVTVSSGGCGGGEVAACEKEVAALEKEVAALEKEVAALEKESKYGPPCPPCPAPEFLGGPSVFLFPPKPKDTLYITREPEVTCVVVDVSQEDPEVQFNWYVDGVEVHNAKTKPREEQFNSTYRVVSVLTVLHQDWLNGKEYKCKVSNKGLPSSIEKTISKAKGQPREPQVYTLPPSQEEMTKNQVSLTCLVKGFYPSDIAVEWESNGQPENNYKTTPPVLDSDGSFFLYSRLTVDKSRWQEGNVFSCSVMHEALHNHYTQKSLSLSLG
chain 2: not shown
notes: Four-chain Fc diabody, PD-1 mAb 6-ISQ x CTLA-4 mAb 3, IgG4 (YTE), E/K-coils
B5: the “EC50 (read off the curve)” value in [10] is approximately 1 nM; in [11] it was approximately 2 nM; with hPD-1-His [1] it was approximately 0.5 nM; in [12], approximately 2 nM. Further, the “IC50 (read off the curve)” value is approximately 0.8 nM in assay [2]; approximately 1 nM in assay [3]; approximately 4 nM in assay [13]; approximately 5 nM in assay [14]; approximately 0.8 nM with hPD-1-His [8]. This molecule also yielded a Kd in assay [9] of 4.9 nM.
